Experimental data from patent US20210032351A1 (XDCEXPLORER SHANGHAI, published 2021).

Legend:
[1] = molecular target: T1, human EGFRvIII-hFc protein (human, UniProt P00533 25-645); test: ELISA, coated EGFRvIII-hFc, antibody 1 nM
T1 construct: extracellular domain; made in HEK293 cells, purified on protein A; also called immunogen A; hFc-tagged EGFRvIII protein; not shown: human IgG Fc fragment (hFc) of the pCpC vector
Method in brief: (§1)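 EGFRvIII-hFc coated at 1.0 μg/mL in PBS overnight at 4° C, blocked with PBS/0.01% Tween20/1% BSA for 2 h at room temperature. Purified anti-EGFRvIII antibody bound 2 h at 37° C, then HRP-labeled secondary 2 h at 37° C. TMB developed 30 min, stopped with 1.0N HCl, A450 nm read.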

[2] = molecular target: T1, human EGFRvIII-hFc protein; test: ELISA, coated EGFRvIII-hFc, antibody 100 nM
Method in brief: as §1

[3] = molecular target: T1, human EGFRvIII-hFc protein; test: ELISA, coated EGFRvIII-hFc, antibody 0.01 nM
Method in brief: as §1

[4] = molecular target: T1, human EGFRvIII-hFc protein; test: ELISA, coated EGFRvIII-hFc, antibody 0.0001 nM
Method in brief: as §1

[5] = molecular target: T2, human EGFRvIII-hFc protein (human, UniProt P00533 25-645); test: ELISA, EGFRvIII-hFc coated
T2 construct: extracellular domain; also called immunogen A; hFc-tagged EGFRvIII protein; not shown: human IgG Fc fragment (hFc) of the pCpC vector

[6] = molecular target: T3, human wild-type EGFR protein on the cell surface (human, UniProt P00533 25-1210); test: FACS on CHOk1-EGFR cells; CHOk1-EGFR cells (recombinant EGFR expression)
T3 construct: whole, on cells; Endogenous on A431, HEB, U87MG cells and normal human primary hepatocytes; transfected on CHOk1-EGFR cells; The cell is named under assay; also called A431; HEB
Procedure: The cells are washed twice with the HBSS buffer and are counted, and then the cells are diluted with the HBSS buffer to 2×10⁶ cells/ml, added with 1% goat serum blocking solution, with the percentage being the mass percentage, and incubated on ice for 30 minutes, and then centrifugally washed twice with the HBSS buffer. The collected cells are suspended to 2×10⁶ cells/mL with an FACS buffer (HBSS+1% BSA, with the percentage being the mass percentage), added to a 96-well FACS reaction plate at 100 μL/well, then added with 100 μL/well of the purified EGFRvIII antibody (samples to be tested) obtained in example 2, and incubated on ice for 2 hours. The plate is centrifugally washed twice with the FACS buffer, added with 100 μL/well of a fluorescence (Alexa 488) labeled secondary antibody (purchased from Invitrogen), and then incubated on ice for 1 hour. […] The cells are suspended in 100 μL of the FACS buffer, and the results are detected and analyzed by FACS (FACS Calibur, purchased from BD). Data analysis is performed by using the software (CellQuest) to obtain the mean fluorescence intensity (MFI) of the cells. Data is further analyzed by using the software (GraphPad Prism5) to perform data fitting and calculate EC50. […]

| OD450 nm [1] | OD450 nm [2] | OD450 nm [3] | OD450 nm [4] | EC50 [5] | Maximum OD450 value [5] | EC50 [6] | Binder |
| --- | --- | --- | --- | --- | --- | --- | --- |
| 0.09 | 0.56 | 0.06 | 0.07 | – | – | – | Murine anti-75G7 (antibody, V domains shown, murine hybridoma antibody; also called 75G7C6) VH: EVQLQQSGPELVKPGASVKIPCKASGYTFTDYNMDWVKQSHGKSLEWIGDINPNNGDTIYNQKFKGKATLTVDKSSSTAYMELRSLTSEDTAVYYCARGDYDGYYPVYYAMDYWGQGTSVTVSS VL: ENVLTQSPAIMSASPGEKVTMTCRASSSVSSSYLHWYQQKSGASPKLWIFSTSNLAAGVPARFSGSGSGTSYSLTVSSVEAEDAATYYCQQYSGYPLTFGAGTKLELK |
| – | – | – | – | 0.5 nM | 2.5 OD450 | 14.2 nM | Chimeric antibody 75G7 (antibody, human IgG1, V domains shown, also called c75G7C6; chimeric antibody c75G7C6) VH: EVQLQQSGPELVKPGASVKIPCKASGYTFTDYNMDWVKQSHGKSLEWIGDINPNNGDTIYNQKFKGKATLTVDKSSSTAYMELRSLTSEDTAVYYCARGDYDGYYPVYYAMDYWGQGTSVTVSS VL: ENVLTQSPAIMSASPGEKVTMTCRASSSVSSSYLHWYQQKSGASPKLWIFSTSNLAAGVPARFSGSGSGTSYSLTVSSVEAEDAATYYCQQYSGYPLTFGAGTKLELK |
